{"source": "paper PMC5373596", "about": "“Metal-dependent SpoIIE oligomerization stabilizes FtsZ during asymmetric division in Bacillus subtilis” (PLoS ONE, 2017)", "binders": {"B1": {"name": "FtsZ (natural protein, B. subtilis, UniProt P17865 1-382, looked up)", "chain": "MLEFETNIDGLASIKVIGVGGGGNNAVNRMIENEVQGVEYIAVNTDAQALNLSKAEVKMQIGAKLTRGLGAGANPEVGKKAAEESKEQIEEALKGADMVFVTAGMGGGTGTGAAPVIAQIAKDLGALTVGVVTRPFTFEGRKRQLQAAGGISAMKEAVDTLIVIPNDRILEIVDKNTPMLEAFREADNVLRQGVQGISDLIATPGLINLDFADVKTIMSNKGSALMGIGIATGENRAAEAAKKAISSPLLEAAIDGAQGVLMNITGGTNLSLYEVQEAADIVASASDQDVNMIFGSVINENLKDEIVVTVIATGFIEQEKDVTKPQRPSLNQSIKTHNQSVPKREPKREEPQQQNTVSRHTSQPADDTLDIPTFLRNRNKRG", "notes": "Cell division protein FtsZ of Bacillus subtilis; source: purified as described [25], > 95% purity"}, "B2": {"name": "MBP-strep-tag-SpoIIEcyt fusion protein (cytoplasmic part of SpoIIE, domains II and III) (domain or fragment, B. subtilis 168, UniProt P37475 326-827, looked up)", "chain": "RKVARYIPGTVEHLQEQQQYARKIRDVTAQKVDQFSNVFHALSESFATFYQASDEQTDDSEVDLFLSKITEHSCQTCYKKNRCWVQNFDKTYDLMKQVMLETEEKEYASNRRLKKEFQQYCSKSKQVEELIEDELAHHHAHLTLKKKVQDSRRLVAEQLLGVSEVMADFSREIKREREQHFLQEEQIIEALQHFGIEIQHVEIYSLEQGNIDIEMTIPFSGHGESEKIIAPMLSDILEEQILVKAEQHSPHPNGYSHVAFGSTKSYRVSTGAAHAAKGGGLVSGDSYSMMELGARKYAAAISDGMGNGARAHFESNETIKLLEKILESGIDEKIAIKTINSILSLRTTDEIYSTLDLSIIDLQDASCKFLKVGSTPSFIKRGDQVMKVQASNLPIGIINEFDVEVVSEQLKAGDLLIMMSDGIFEGPKHVENHDLWMKRKMKGLKTNDPQEIADLLMEEVIRTRSGQIEDDMTVVVVRIDHNTPKWASIPVPAIFQNKQEIS", "notes": "SpoIIE of Bacillus subtilis 168, domains II and III (cytoplasmic part), amino acids 326-827; called a 501 residue fragment; Order on the chain: MBP (from pMalC2x), short strep-tag, SpoIIE 326-827; Co-purifies with about 2 Fe per protein; also called ms-SpoIIEcyt; source: E. coli BL21-RIL, purified (amylose resin, eluted with maltose); not shown: MBP, N-terminal, kept; strep-tag, N-terminal, kept"}, "B3": {"name": "strep-tagged-SpoIIEcyt (cytoplasmic part of SpoIIE, MBP removed) (domain or fragment, B. subtilis 168, UniProt P37475 326-827, looked up)", "chain": "B2 chain", "notes": "SpoIIE of Bacillus subtilis 168, domains II and III (cytoplasmic part), amino acids 326-827; called a 501 residue fragment; also called s-SpoIIEcyt; strep-SpoIIEcyt; not shown: MBP, N-terminal, cleaved; strep-tag, N-terminal, kept"}}, "key": {"[1]": {"molecular_target": "the molecule itself", "experiment": "90° light scattering; 10 μM FtsZ and/or 1.5 μM s-SpoIIEcyt in 50 mM Tris/HCl pH 7.5, 300 mM KCl, 10 mM MgCl2; 2 mM GTP or GDP added after 90 s; 30°C; controls of FtsZ alone with Mn2+ or EDTA"}, "[2]": {"molecular_target": "B3", "experiment": "90° light scattering; 10 μM FtsZ and/or 1.5 μM s-SpoIIEcyt in 50 mM Tris/HCl pH 7.5, 300 mM KCl, 10 mM MgCl2; 2 mM GTP or GDP added after 90 s; 30°C; controls of FtsZ alone with Mn2+ or EDTA", "conditions": "both partners purified"}, "[3]": {"molecular_target": "the molecule itself", "experiment": "co-sedimentation; 10 μM ms-SpoIIEcyt in 50 mM MES/NaOH pH 6.5, 50 mM KCl; after 1 mM EDTA, 5 mM MnCl2 added for 30 min; spun at 186,000 x g, supernatant and pellet on SDS-PAGE"}, "[4]": {"molecular_target": "the molecule itself", "experiment": "transmission electron microscopy; 10 μM FtsZ with or without 1.5 μM s-SpoIIEcyt, or 1.5 μM s-SpoIIEcyt alone with 10 mM MnCl2, in 50 mM Tris/HCl pH 7.5, 300 mM KCl with 1 mM EDTA or 10 mM MgCl2 or 10 mM MnCl2; GTP or GDP; samples taken after 30 min at 30°C"}}, "data": [{"binder": "B1", "values": [{"measurement": "binding result", "setting": "[1]", "result": "binds"}, {"measurement": "binding result", "setting": "[2]", "result": "binds"}]}, {"binder": "B2", "values": [{"measurement": "binding result", "setting": "[3]", "result": "binds"}]}, {"binder": "B3", "values": [{"measurement": "binding result", "setting": "[4]", "result": "binds"}]}]}
